Usually Ki stands for a dissociation constant, usually derived from enzyme kinetics or from competition with a known ligand. Read a low Ki as tighter binding. Broadly, the IC50 is the concentration that gives 50% inhibition. A higher IC50 goes with weaker potency in that assay.

These results are taken from patent US20140249091A1 (BIOUSIAN BIOSYSTEMS, published 2014).

Read-outs that look alike come from different tables or passages of the source. Non-standard residues stand in square brackets, D forms with d. *: point of attachment. βGlc = OC[C@H]1O[C@@H](*)[C@H](O)[C@@H](O)[C@@H]1O; Nle = CCCC[C@H](N)C(=O)O; Nva = CCC[C@H](N)C(=O)O

Test [1] addresses T1, human mu opioid receptor (human, UniProt P35372 1-400).
T1 construct: whole, on cells; Assayed as CHO cell membranes; also called hMOR; MOR
In words: competition vs [3H]DAMGO, hMOR CHO cell membranes (summary table).

The target of test [2] is T1, human mu opioid receptor. In words: cell-based or functional assay.
Test [3] addresses T2, human delta opioid receptor (human, UniProt P41143 1-372). As to the kind of experiment: cell-based or functional assay.
Test [4] has as its target T2, human delta opioid receptor. As to the kind of experiment: competition vs [3H]naltrindole, hDOR CHO cell membranes; reference DPDPE.
Test [5] has the same target. As to the kind of experiment: radioligand competition; reference hMOR. (In general: Loss of bound radioactivity is the signal in a displacement assay; it reports binding, not function.)
Test [6] shares this target. In words: competition vs [3H]naltrindole, hDOR CHO cell membranes (summary table).
The target is the same in test [7]. As to the kind of experiment: competition vs 0.2 nM [3H]naltrindole, hDOR CHO cell membranes.
Test [8] concerns the target T1, human mu opioid receptor. As to the kind of experiment: competition vs 0.25 nM [3H]DAMGO, hMOR CHO cell membranes.
Test [9] has as its target human kappa opioid receptor (human) (UniProt P41145). In words: inhibition of [3H]U69,593 binding at 10 uM peptide, hKOR CHO cell membranes.
For test [10], the target named is T1, human mu opioid receptor. In words: competition vs 0.25 nM [3H]DAMGO, hMOR CHO cell membranes. This is another data set of the same source.
Test [11] has as its target T2, human delta opioid receptor. As to the kind of experiment: competition vs 0.2 nM [3H]naltrindole, hDOR CHO cell membranes. The source holds these as a separate data set.
The target in test [12] is human kappa opioid receptor (human) (UniProt P41145). As to the kind of experiment: inhibition of [3H]U69,593 binding at 10 uM peptide, hKOR CHO cell membranes. The source holds these as a separate data set.
human kappa opioid receptor (human), sequence (P41145 whole entry): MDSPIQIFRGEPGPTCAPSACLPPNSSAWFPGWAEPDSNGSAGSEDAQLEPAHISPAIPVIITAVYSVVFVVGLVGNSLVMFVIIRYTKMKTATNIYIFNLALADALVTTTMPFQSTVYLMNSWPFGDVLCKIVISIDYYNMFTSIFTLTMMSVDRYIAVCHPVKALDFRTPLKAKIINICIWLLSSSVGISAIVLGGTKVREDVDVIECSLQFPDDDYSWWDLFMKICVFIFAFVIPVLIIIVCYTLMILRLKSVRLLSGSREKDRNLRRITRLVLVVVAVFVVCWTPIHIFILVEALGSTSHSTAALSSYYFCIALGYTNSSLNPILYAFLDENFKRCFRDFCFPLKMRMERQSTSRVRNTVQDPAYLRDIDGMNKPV

T1 sequence (P35372 whole entry): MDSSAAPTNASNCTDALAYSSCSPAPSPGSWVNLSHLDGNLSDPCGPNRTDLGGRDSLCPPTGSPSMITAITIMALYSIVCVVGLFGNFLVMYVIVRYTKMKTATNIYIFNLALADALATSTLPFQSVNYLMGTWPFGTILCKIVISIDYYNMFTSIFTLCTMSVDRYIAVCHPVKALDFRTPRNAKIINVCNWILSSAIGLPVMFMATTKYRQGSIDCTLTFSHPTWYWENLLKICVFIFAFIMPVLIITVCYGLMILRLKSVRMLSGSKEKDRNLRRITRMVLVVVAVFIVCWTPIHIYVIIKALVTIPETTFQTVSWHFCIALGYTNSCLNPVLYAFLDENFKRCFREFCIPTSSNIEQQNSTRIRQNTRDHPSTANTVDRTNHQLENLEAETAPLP
T2 sequence (P41143 whole entry, stated change not applied): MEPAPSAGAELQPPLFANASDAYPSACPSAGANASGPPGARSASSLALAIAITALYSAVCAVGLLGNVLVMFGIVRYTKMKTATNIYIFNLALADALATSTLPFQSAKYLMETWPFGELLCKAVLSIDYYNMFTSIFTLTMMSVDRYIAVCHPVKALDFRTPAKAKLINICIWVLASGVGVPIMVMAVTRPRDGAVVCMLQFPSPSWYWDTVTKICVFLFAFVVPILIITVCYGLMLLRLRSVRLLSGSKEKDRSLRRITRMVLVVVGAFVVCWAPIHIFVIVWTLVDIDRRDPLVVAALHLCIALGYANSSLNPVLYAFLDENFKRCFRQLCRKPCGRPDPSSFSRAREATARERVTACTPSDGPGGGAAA

DPDPE (peptide) returned a Ki with human mu opioid receptor [1] of 0.18 µM.
For the molecule “11009 (H2N-YaFE-Nle-Nle-T-amide) (peptide)”, in the test with human mu opioid receptor [2], the EMax (%), agonist properties, [35S]GTPγS binding was determined as 42%. In test [3], this molecule had an EC50 (nM), agonist properties, [35S]GTPγS binding of 12 nM and an EMax (%), agonist properties, [35S]GTPγS binding of 67%.

B1: 11008 = Deltorphin B4, H2N-YaFE-Nle-Nle-T(beta-D-Glc)-amide (peptide)
peptide: H-Y[dA]FE[Nle][Nle]T(βGlc)-NH2
SMILES: CCCC[C@H](NC(=O)[C@H](CCC(=O)O)NC(=O)[C@H](Cc1ccccc1)NC(=O)[C@@H](C)NC(=O)[C@@H](N)Cc1ccc(O)cc1)C(=O)N[C@@H](CCCC)C(=O)N[C@H](C(N)=O)[C@@H](C)O[C@@H]1O[C@H](CO)[C@@H](O)[C@H](O)[C@H]1O
Consider B1, for which the “fold lower affinity than DPDPE” value in test [4] was roughly 3 fold. For the same molecule, the inhibitory constant (Ki) with human mu opioid receptor [1] was determined as 1.1 µM; in test [6], 0.014 µM; in test [7], 0.014 µM; in the test with human mu opioid receptor [8], 1.1 µM. Also, the “Selectivity Delta:Mu” value in test [5] is 79 fold (Ki mu over Ki delta). Besides, the values for the IC50 (in test [7]; with human mu opioid receptor [8]) were 0.042 µM and 1.5 µM, respectively. Moreover, the “EC50 (nM), agonist properties, [35S]GTPγS binding” value in test [3] was determined as 12 nM. The molecule also showed a Max Inhib at 10 uM (%) in [9] of 2.9%.

B2: 11005 = Deltorphin B1, H2N-YaFE-Nva-Nva-S(beta-D-Glc)-amide (peptide)
peptide: H-Y[dA]FE[Nva][Nva]S(βGlc)-NH2
SMILES: CCC[C@H](NC(=O)[C@H](CCC)NC(=O)[C@H](CCC(=O)O)NC(=O)[C@H](Cc1ccccc1)NC(=O)[C@@H](C)NC(=O)[C@@H](N)Cc1ccc(O)cc1)C(=O)N[C@@H](CO[C@@H]1O[C@H](CO)[C@@H](O)[C@H](O)[C@H]1O)C(N)=O
notes: also called glycopeptide 11005
Consider B2, for which the 50% inhibitory concentration (IC50) with human mu opioid receptor [10] came to 1 µM; in [11] it was 0.061 µM. For the same molecule, the Ki in the test with human mu opioid receptor [10] worked out at 0.71 µM; in test [11] it was 0.02 µM; with human mu opioid receptor [1] it was 0.71 µM; in test [6] it was 0.02 µM. The same molecule yielded a Max Inhib at 10 uM (%) in [12] of 5.3%. Moreover, the “Selectivity Delta:Mu” value in test [5] is 36 fold (Ki mu over Ki delta).
